Some results are limits rather than exact numbers.

The experiment deals with triazole-linked ^triazole42Ub^me-ADPr (5), biotinylated (UniProt P0CG48). The experiment is described as follows: pull-down.

On to “mCherry-DupA-WT (from UniProt Q5ZTK7 1-301) (enzyme)”, for which the fold enrichment against biotinylated wild-type Ub or beads is greater than 10 fold.

Source of the values: publication PMC7898697.
